Test results taken from US20220143136A1, “USE OF ANNEXINS IN PREVENTING AND TREATING MUSCLE MEMBRANE INJURY” (NORTHWESTERN UNIVERSITY, priority 2018, published 2022).
Entries after “also recorded” stand apart in the source; their conditions may differ.

How the values were obtained:
wildtype myofibers = experiment: Laser-induced membrane injury, FM 4-64 dye uptake; type: cell-based, mouse; settings: for FM 4-64 fluorescence area / dye uptake after laser injury: extracellular recombinant protein vs vehicle control
[1] = tested on: dysferlin-null (Dysf129) myofibers; experiment: Laser-induced membrane injury, FM 4-64 dye uptake, dysferlin-null myofibers; type: cell-based, mouse; settings: LGMD2B model
Protocol: Myofiber isolation. Flexor digitorum brevis (FDB) fibers were isolated with methods that were described previously in (Demonbreun and McNally, 2015; Demonbreun et al., 2016b; DiFranco et al., 2009). Briefly, fibers were dissociated in 0.2% BSA plus collagenase type II (Cat #17101, Thermo Fisher Scientific, Waltham, Mass.) for 60 minutes at 37 degrees in 10% CO2. Fibers were then moved to Ringers solution and placed on MatTek confocal microscopy dishes (Cat #P35G-1.5-14-C, MatTek, Ashland Mass.).
Multiphoton laser injury and imaging. Isolated fibers were subjected to laser-induced damage at room temperature using the Nikon A1R-MP multiphoton microscope. Imaging was performed using a 25×1.1 NA objective directed by the NIS-Elements AR imaging software. Green fluorescence protein (GFP) and FM 4-64 were excited using a 920 nm wavelength laser and emission wavelengths of 575 nm and 629 nm were collected respectively. […] Fluorescence intensity and cap area were measured using Fiji (NIH).
For recombinant protein studies, myofibers were isolated from mice as described above. […] Cap size was assessed from acquired images in FIJI. […] Images were acquired and quantitated as described above. FM 4-64 fluorescence at endpoint was measured using FIJI.

mdx/hLTBP4 myofibers = experiment: Laser-induced membrane injury, FM 4-64 dye uptake, dystrophic myofibers; type: cell-based, mouse; settings: 25 μg/ml extracellular recombinant protein vs vehicle control, dystrophic (DMD model) myofibers
Protocol: For recombinant myofibers studies, myofibers were isolated from mdx/hLTBP4 mice as described above. Myofibers were incubated in Ringer's media with or without 25 μg/ml recombinant annexin A6 (5186-A6-050, R&D systems). FM 4-64 ([…]) was added to the myofibers just prior to imaging. Images were acquired and quantitated as described above. FM 4-64 area was measured using FIJI at imaging endpoint from a single slice near the middle of the z-stack. Z-stack step size (0.125 μm) was acquired from cap end to end.
Multiphoton laser injury and imaging. Fibers were subjected to laser-induced damage at room temperature using the Nikon A1R-MP multiphoton microscope. Imaging was performed using a 25×1.1 NA objective directed by the NIS-Elements AR imaging software. Green fluorescence protein (GFP) and FM 4-64 were excited using a 920 nm wavelength laser and emission wavelengths of 575 nm and 629 nm were collected respectively. To induce laser damage on isolated myofibers, a diffraction limited spot (diameter approximately 410 nm) was created on the lateral membrane of the myofiber using a 920 nm wavelength laser at 10-15% laser power for 1 second. […]
Multiphoton laser injury and imaging. […] Green fluorescence protein (GFP) and FM 4-64 were excited using a 920 nm wavelength laser and emission wavelengths of 575 nm and 629 nm were collected respectively. […]

Sgcg-null mice = experiment: Chronic injury, short-term chronic dosing and serum biomarker analysis; type: in vivo, mouse; settings: for serum creatine kinase (CK) at day 14: 1 mg/kg once every three days for 14 days, vs PBS control
Protocol: Chronic Injury and biomarker analysis. […] Mice were injected once every 3 days for a period of 12 days. Serum was acquired as previously described (Demonbreun et al 2016a). Serum CK was analyzed for each mouse using the EnzyChrom Creatine Kinase Assay (catalog ECPK-100, BioAssay Systems) following the manufacturer's instructions. Lactate dehydrogenase was analyzed for each mouse using (LDH cytotoxicity kit MK401, Takara) following the manufacturer's instructions.
Serum collection and CK analysis.
Short-term chronic dosing regimen. […] An additional cohort of Sgcg-null mice had blood drawn as described above immediately prior to the first protein injection. Then, 1 mg/kg recombinant annexin A6 or annexin A2 (both produced by Northwestern's Protein Production Core) was injected into the right retro-orbital cavity of sedated mice, once every 3 days for a total of 5 injections and then blood drawn on day 14 post initial injection.

[2] = 1 mg/kg retro-orbital once every 3 days for 12 days, vs control

B1: annexin A6: annexin A6 with carboxyl-terminal turboGFP or tdTomato tag, expressed from plasmid electroporated into myofibers (protein, UniProt P14824 2-673, looked up)
Annexin A6: AKIAQGAMYRGSVHDFPEFDANQDAEALYTAMKGFGSDKESILELITSRSNKQRQEICQNYKSLYGKDLIEDLKYELTGKFERLIVNLMRPLAYCDAKEIKDAISGVGTDEKCLIEILASRTNEQMHQLVAAYKDAYERDLESDIIGDTSGHFQKMLVVLLQGTRENDDVVSEDLVQQDVQDLYEAGELKWGTDEAQFIYILGNRSKQHLRLVFDEYLKTTGKPIEASIRGELSGDFEKLMLAVVKCIRSTPEYFAERLFKAMKGLGTRDNTLIRIMVSRSELDMLDIREIFRTKYEKSLYSMIKNDTSGEYKKALLKLCGGDDDAAGQFFPEAAQVAYQMWELSAVSRVELKGTVCAANDFNPDADAKALRKAMKGIGTDEATIIDIVTHRSNAQRQQIRQTFKSHFGRDLMADLKSEISGDLARLILGLMMPPAHYDAKQLKKAMEGAGTDEKTLIEILATRTNAEIRAINEAYKEDYHKSLEDALSSDTSGHFRRILISLATGNREEGGENRDQAQEDAQVAAEILEIADTPSGDKTSLETRFMTVLCTRSYPHLRRVFQEFIKKTNYDIEHVIKKEMSGDVKDAFVAIVQSVKNKPLFFADKLYKSMKGAGTDEKTLTRVMVSRSEIDLLNIRREFIEKYDKSLHQAIEGDTSGDFMKALLALCGGED
modifications: C-terminal turboGFP or tdTomato tag
notes: annexin A6 with carboxyl-terminal turboGFP or tdTomato tag, expressed from plasmid electroporated into myofibers
B1 was tested, and the “FM 4-64 dye uptake after laser-induced injury” value (wildtype myofibers; plasmid overexpression of annexin A6-GFP vs mock electroporated control) was “decreased; also recorded: reduced” and the “FM 4-64 dye uptake after laser injury” value ([1]; plasmid overexpression of annexin A6 vs control) was “significant reduction; also recorded: reduced”.

B2: recombinant annexin A6: recombinant human annexin A6 protein with C-terminal HIS tag (5186-A6-050, R&D systems); mouse protein from Northwestern core in one cohort (protein, UniProt P08133 2-673, looked up)
Annexin A6: AKPAQGAKYRGSIHDFPGFDPNQDAEALYTAMKGFGSDKEAILDIITSRSNRQRQEVCQSYKSLYGKDLIADLKYELTGKFERLIVGLMRPPAYCDAKEIKDAISGIGTDEKCLIEILASRTNEQMHQLVAAYKDAYERDLEADIIGDTSGHFQKMLVVLLQGTREEDDVVSEDLVQQDVQDLYEAGELKWGTDEAQFIYILGNRSKQHLRLVFDEYLKTTGKPIEASIRGELSGDFEKLMLAVVKCIRSTPEYFAERLFKAMKGLGTRDNTLIRIMVSRSELDMLDIREIFRTKYEKSLYSMIKNDTSGEYKKTLLKLSGGDDDAAGQFFPEAAQVAYQMWELSAVARVELKGTVRPANDFNPDADAKALRKAMKGLGTDEDTIIDIITHRSNVQRQQIRQTFKSHFGRDLMTDLKSEISGDLARLILGLMMPPAHYDAKQLKKAMEGAGTDEKALIEILATRTNAEIRAINEAYKEDYHKSLEDALSSDTSGHFRRILISLATGHREEGGENLDQAREDAQVAAEILEIADTPSGDKTSLETRFMTILCTRSYPHLRRVFQEFIKMTNYDVEHTIKKEMSGDVRDAFVAIVQSVKNKPLFFADKLYKSMKGAGTDEKTLTRIMVSRSEIDLLNIRREFIEKYDKSLHQAIEGDTSGDFLKALLALCGGED
modifications: C-terminal His tag
notes: recombinant human annexin A6 protein with C-terminal HIS tag (5186-A6-050, R&D systems); mouse protein from Northwestern core in one cohort
In the case of B2, the “FM 4-64 fluorescence area / dye uptake after laser injury” value (wildtype myofibers) is reported as “reduced”, the “FM 4-64 fluorescence area / dye uptake after laser injury” value (wildtype myofibers; listed as rANXA6) is reported as “significantly smaller; also recorded: significantly less” and the “FM 4-64 fluorescence / dye uptake after laser injury” value (mdx/hLTBP4 myofibers) is reported as “reduced”. The “FM 4-64 fluorescence / dye uptake after laser injury” value (mdx/hLTBP4 myofibers; listed as rANXA6) was “significantly smaller; also recorded: significantly less”, the “FM 4-64 fluorescence area after laser injury” value ([1]; extracellular recombinant protein vs vehicle control) was “reduced; also recorded: decreased” and the “serum CK fold change post/pretreatment (Day 14/Day 0)” value (Sgcg-null mice; 1 mg/kg every 3 days for 14 days, compared to recombinant annexin A2, proteins from Northwestern's Protein Production Core) was “significantly reduced”. The “serum creatine kinase (CK) at day 14” value (Sgcg-null mice) was “significantly decreased”, the “serum creatine kinase (CK) at day 14” value (Sgcg-null mice; listed as rANXA6) was “lower” and the “serum creatine kinase (CK)” value (Sgcg-null mice; [2]) was “reduced”. The “serum lactate dehydrogenase (LDH)” value (Sgcg-null mice; [2]) was “reduced” and the “histology of gastrocnemius/soleus muscle” value (Sgcg-null mice; 14-day dosing, vs PBS) was “qualitatively less injury”.
